Results: patent US20090130105A1

Target: All other mutant IGF-1R constructs
Experiment: SPR, Fab over captured mutant hIGF-1R-Fc; all of SD001-SD019 other than SD015

| Kd | Binder |
| --- | --- |
| 5 nM | M14-C03 Fab (Fab, V domains shown) VH: EVQLLESGGGLVQPGGSLRLSCAASGFTFSKYMMSWVRQAPGKGLEWVSYISPSGGLTWYADSVKGRFTISRDNSKNTLYLQMNSLRAEDTAVYYCARDGARGYGMDVWGQGTTVTVSS VL: DIQMTQSPATLSLSPGERATLSCRASQSVSSYLAWYQQKPGQAPRLLIYDASNRATGIPARFSGSGSGTDFTLTISSLEPEDFAVYYCQQRSNWPPEVTFGPGTKVDIK |
| 1 nM | M13-C06 Fab (Fab, V domains shown) VH: EVQLLESGGGLVQPGGSLRLSCAASGFTFSIYRMQWVRQAPGKGLEWVSGISPSGGTTWYADSVKGRFTISRDNSKNTLYLQMNSLRAEDTAVYYCARWSGGSGYAFDIWGQGTMVTVSS VL: DIQMTQSPLSLSASVGDRVTITCQASRDIRNYLNWYQQKPGKAPKLLIYDASSLQTGVPSRFGGSGSGTDFSFTIGSLQPEDIATYYCQQFDSLPHTFGQGTKLEIK |
